Assays:
[1] = biological target: recombinant wild type Ded1 (yeast, UniProt P06634 1-604); experiment: pull-down
[2] = biological target: T1, co-purified GST-eIF4G1/eIF4E complex (yeast, UniProt P39935 1-952; P07260 1-213); experiment: pull-down
T1 sequence (looked up) 1: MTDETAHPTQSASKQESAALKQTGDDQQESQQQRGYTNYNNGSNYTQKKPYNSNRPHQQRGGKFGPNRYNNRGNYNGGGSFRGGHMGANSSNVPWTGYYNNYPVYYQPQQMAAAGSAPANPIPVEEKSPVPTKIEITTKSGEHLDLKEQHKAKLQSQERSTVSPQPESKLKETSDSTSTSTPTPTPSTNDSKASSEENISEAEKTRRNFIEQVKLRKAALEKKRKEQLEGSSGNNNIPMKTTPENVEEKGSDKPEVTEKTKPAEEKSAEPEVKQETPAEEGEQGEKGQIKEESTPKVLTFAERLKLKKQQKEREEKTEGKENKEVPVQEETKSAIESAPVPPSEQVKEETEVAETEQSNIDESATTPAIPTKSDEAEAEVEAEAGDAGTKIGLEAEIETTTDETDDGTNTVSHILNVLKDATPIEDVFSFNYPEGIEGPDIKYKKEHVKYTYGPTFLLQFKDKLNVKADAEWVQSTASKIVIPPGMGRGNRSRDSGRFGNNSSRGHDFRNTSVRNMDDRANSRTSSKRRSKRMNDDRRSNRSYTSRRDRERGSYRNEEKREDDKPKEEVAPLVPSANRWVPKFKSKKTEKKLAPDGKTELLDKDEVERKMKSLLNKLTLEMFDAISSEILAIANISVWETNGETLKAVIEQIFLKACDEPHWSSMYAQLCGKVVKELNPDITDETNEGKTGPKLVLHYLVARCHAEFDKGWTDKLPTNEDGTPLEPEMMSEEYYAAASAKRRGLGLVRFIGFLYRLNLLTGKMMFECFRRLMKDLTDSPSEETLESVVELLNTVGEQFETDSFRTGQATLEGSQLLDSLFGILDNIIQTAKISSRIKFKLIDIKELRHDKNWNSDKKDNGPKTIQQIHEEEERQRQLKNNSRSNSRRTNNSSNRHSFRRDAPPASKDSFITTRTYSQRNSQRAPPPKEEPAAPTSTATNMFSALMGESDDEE
T1 sequence (looked up) 2: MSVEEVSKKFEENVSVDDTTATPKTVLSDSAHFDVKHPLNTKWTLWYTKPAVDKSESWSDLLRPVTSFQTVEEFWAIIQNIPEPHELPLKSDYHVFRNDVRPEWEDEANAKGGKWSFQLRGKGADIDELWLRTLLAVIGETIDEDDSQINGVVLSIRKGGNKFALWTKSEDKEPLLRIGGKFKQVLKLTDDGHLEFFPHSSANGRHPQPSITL

B1: GST-eIF4G1 fragment eIF4G 883-952 (domain or fragment, yeast, UniProt P39935 883-952, looked up)
chain: SNSRRTNNSSNRHSFRRDAPPASKDSFITTRTYSQRNSQRAPPPKEEPAAPTSTATNMFSALMGESDDEE
Question: Does B1 bind [1]?
Answer: binds

B2: rded1Δ21-27 (enzyme, yeast, UniProt P06634 1-604, looked up)
chain: MAELSEQVQNLSINDNNENGGKPRSARNNSSNYNNNNGGYNGGRGGGSFFSNNRRGGYGNGGFFGGNNGGSRSNGRSGGRWIDGKHVPAPRNEKAEIAIFGVPEDPNFQSSGINFDNYDDIPVDASGKDVPEPITEFTSPPLDGLLLENIKLARFTKPTPVQKYSVPIVANGRDLMACAQTGSGKTGGFLFPVLSESFKTGPSPQPESQGSFYQRKAYPTAVIMAPTRELATQIFDEAKKFTYRSWVKACVVYGGSPIGNQLREIERGCDLLVATPGRLNDLLERGKISLANVKYLVLDEADRMLDMGFEPQIRHIVEDCDMTPVGERQTLMFSATFPADIQHLARDFLSDYIFLSVGRVGSTSENITQKVLYVENQDKKSALLDLLSASTDGLTLIFVETKRMADQLTDFLIMQNFRATAIHGDRTQSERERALAAFRSGAATLLVATAVAARGLDIPNVTHVINYDLPSDVDDYVHRIGRTGRAGNTGLATAFFNSENSNIVKGLHEILTEANQEVPSFLKDAMMSAPGSRSNSRRGGFGRNNNRDYRKAGGASAGGWGSSRSRDNSFRGGSGWGSDSKSSGWGNSGGSNNSSWW
Question: Does B2 bind [2]?
Answer: binds

From paper PMC3268518 (Molecular Cell, 2011)
